Numbered stars: 1 amine (or outer) side, 2 acyl side, 3 side chain; on linkers, the order of the positions; unused ones are H or OH. Bridge positions count the residues as written; N and C are the ends. Square brackets hold non-standard residues; d marks the D form. Primed or numbered codes have the meaning given here. Ends that are not written are not given here. * marks the point of attachment. 5118 = (1R,2S)-ethyl 2-aminocyclohexanecarboxylate, CCOC(=O)[C@@H]1CCCC[C@@H]1N*; 5119 = (1R,2R)-ethyl 2-aminocyclohexanecarboxylate, CCOC(=O)[C@@H]1CCCC[C@H]1N*; 5116 = (1S,2R)-2-aminocyclohexanecarboxamide, NC(=O)[C@H]1CCCC[C@H]1N*; 1860″ = (1R,2R)-2-methylcyclohexanamine, C[C@@H]1CCCC[C@H]1N*; 5164 = (S)-3-amino-1-ethylazepan-2-one, CCN1CCCC[C@H](N*)C1=O; Sni = (S)-nipecotic acid, O=C([C@H]1CCCN([*:1])C1)[*:2]; 5121 = 1-propyl-butyl-amine, CCCC(CCC)N*; Octanoyl = CCCCCCCC(=O)*; 1859 = not defined here; 1906 = not defined here; 1934 = not defined here; 3791 = not defined here; 5163 = not defined here; 504 = not defined here; 559 = not defined here; 873 = not defined here; Che = not defined here; ala = not defined here; pro = not defined here; Occ = octanoic acid
B1: JAL-0790 (peptide)
peptide: Octanoyl-AAFGLKLDR[504]
modifications: not fully specified (some residues); printed as Occ-ala-ala-Phe-Gly-Leu-Lys-Leu-Asp-Arg-504; reading uncertain
B2: JAL-0791 (peptide)
peptide: Octanoyl-AAFGLKLDR[559]
modifications: not fully specified (some residues); printed as Occ-ala-ala-Phe-Gly-Leu-Lys-Leu-Asp-Arg-559; reading uncertain
B3: JAL-0792 (peptide)
peptide: Octanoyl-AAFGLKLDR[3791]
modifications: not fully specified (some residues); printed as Occ-ala-ala-Phe-Gly-Leu-Lys-Leu-Asp-Arg-3791; reading uncertain
B4: JAL-0797 (peptide)
peptide: Octanoyl-AAFGLKLDR[Che]
modifications: not fully specified (some residues); printed as Occ-ala-ala-Phe-Gly-Leu-Lys-Leu-Asp-Arg-Che; reading uncertain
B5: JAL-0798 (peptide)
peptide: Octanoyl-AAFGLKLDR[1859]
modifications: not fully specified (some residues); printed as Occ-ala-ala-Phe-Gly-Leu-Lys-Leu-Asp-Arg-1859; reading uncertain
B6: JAL-0799 (peptide)
peptide: Octanoyl-AAFGLKLDR[1934]
modifications: not fully specified (some residues); printed as Occ-ala-ala-Phe-Gly-Leu-Lys-Leu-Asp-Arg-1934; reading uncertain
B7: JAL-0801 (peptide)
peptide: Octanoyl-AAFGLKLDR[1906]
modifications: not fully specified (some residues); printed as Occ-ala-ala-Phe-Gly-Leu-Lys-Leu-Asp-Arg-1906; reading uncertain
B8: JAL-0824 (peptide)
peptide: Octanoyl-AAFGLKLDR[873]
modifications: not fully specified (some residues); printed as Occ-ala-ala-Phe-Gly-Leu-Lys-Leu-Asp-Arg-873; reading uncertain
B9: JAL-0825 (peptide)
peptide: Octanoyl-[ala][ala]FGLKLDR[5116]
modifications: reading uncertain; also: printed as Occ-ala-ala-Phe-Gly-Leu-Lys-Leu-Asp-Arg-5116
B10: JAL-0826 (peptide)
peptide: Octanoyl-[ala][ala]FGLKLDR[5119]
modifications: reading uncertain; also: printed as Occ-ala-ala-Phe-Gly-Leu-Lys-Leu-Asp-Arg-5119
B11: JAL-0831 (peptide)
peptide: Octanoyl-[ala][ala]FGLKLDR[5118]
modifications: reading uncertain; also: printed as Occ-ala-ala-Phe-Gly-Leu-Lys-Leu-Asp-Arg-5118
B12: JAL-0833 (peptide)
peptide: Octanoyl-[ala][ala]FGLKLDR[5163]
modifications: reading uncertain; also: printed as Occ-ala-ala-Phe-Gly-Leu-Lys-Leu-Asp-Arg-5163
B13: JAL-0834 (peptide)
peptide: Octanoyl-[ala][ala]FGLKLDR-5164
modifications: reading uncertain; also: printed as Occ-ala-ala-Phe-Gly-Leu-Lys-Leu-Asp-Arg-5164
B14: JAL-0839 (peptide)
peptide: Octanoyl-AFGLKLDR-{1860″}
modifications: not fully specified (some residues); printed as Occ-ala-Phe-Gly-Leu-Lys-Leu-Asp-Arg-1860
B15: JAL-0840 (peptide)
peptide: Octanoyl-AFGLKLDR[Che]
modifications: not fully specified (some residues); printed as Occ-ala-Phe-Gly-Leu-Lys-Leu-Asp-Arg-Che; reading uncertain
B16: JAL-0841 (peptide)
peptide: Octanoyl-AFGLKLDR-5121
modifications: not fully specified (some residues); printed as Occ-ala-Phe-Gly-Leu-Lys-Leu-Asp-Arg-5121

Molecular target: T1, natriuretic peptide receptor-B (human)
T1 chain: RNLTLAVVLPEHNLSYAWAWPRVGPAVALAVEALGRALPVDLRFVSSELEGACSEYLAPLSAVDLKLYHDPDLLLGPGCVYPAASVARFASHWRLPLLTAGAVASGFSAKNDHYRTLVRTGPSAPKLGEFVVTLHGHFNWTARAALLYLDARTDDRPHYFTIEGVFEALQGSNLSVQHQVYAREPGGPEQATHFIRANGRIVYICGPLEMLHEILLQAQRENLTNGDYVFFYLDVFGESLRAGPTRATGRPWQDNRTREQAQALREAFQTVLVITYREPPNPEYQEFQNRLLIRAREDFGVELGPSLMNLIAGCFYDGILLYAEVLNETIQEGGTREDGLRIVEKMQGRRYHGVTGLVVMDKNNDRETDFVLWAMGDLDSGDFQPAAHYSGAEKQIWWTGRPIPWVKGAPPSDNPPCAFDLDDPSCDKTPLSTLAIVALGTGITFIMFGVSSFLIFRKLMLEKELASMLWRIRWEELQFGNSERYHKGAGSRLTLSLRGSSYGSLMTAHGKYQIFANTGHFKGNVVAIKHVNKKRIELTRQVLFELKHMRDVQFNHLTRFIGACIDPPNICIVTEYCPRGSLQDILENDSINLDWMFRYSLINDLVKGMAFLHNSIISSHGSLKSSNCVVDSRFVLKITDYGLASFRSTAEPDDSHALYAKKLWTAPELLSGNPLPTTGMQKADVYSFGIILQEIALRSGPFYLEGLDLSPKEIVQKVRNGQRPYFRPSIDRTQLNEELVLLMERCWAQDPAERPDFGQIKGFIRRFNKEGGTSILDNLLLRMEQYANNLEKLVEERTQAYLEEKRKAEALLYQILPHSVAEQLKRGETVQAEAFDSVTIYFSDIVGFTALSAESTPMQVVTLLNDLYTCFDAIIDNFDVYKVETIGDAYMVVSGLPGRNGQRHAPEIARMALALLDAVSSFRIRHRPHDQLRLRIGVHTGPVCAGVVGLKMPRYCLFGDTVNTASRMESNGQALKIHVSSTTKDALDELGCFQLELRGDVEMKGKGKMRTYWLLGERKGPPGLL
Assay: cell-based or functional assay

B1 and B2 cannot be ordered by “EC50 group, cGMP in GTM-3 cells” value: ≤ 15 µM for the first, ≤ 15 µM for the second.

B3 and B4 cannot be ordered by “EC50 group, cGMP in GTM-3 cells” value: ≤ 15 µM for the first, ≤ 5 µM for the second.

B5 and B6 cannot be ordered by “EC50 group, cGMP in GTM-3 cells” value: ≤ 15 µM for the first, ≤ 5 µM for the second.

B7 and B8 cannot be ordered by “EC50 group, cGMP in GTM-3 cells” value: ≤ 5 µM for the first, ≤ 15 µM for the second.

B9 and B10 cannot be ordered by “EC50 group, cGMP in GTM-3 cells” value: ≤ 15 µM for the first, ≤ 5 µM for the second.

B11 and B12 cannot be ordered by “EC50 group, cGMP in GTM-3 cells” value: ≤ 15 µM for the first, ≤ 15 µM for the second.

B13 and Octanoyl-[ala]FGLPLDRI-NH2 (reading uncertain; also: printed as Occ-ala-Phe-Gly-Leu-Pro-Leu-Asp-Arg-Ile-NH2) [JAL-0835] cannot be ordered by “EC50 group, cGMP in GTM-3 cells” value: ≤ 15 µM for the first, ≤ 15 µM for the second.

Octanoyl-[pro]FGLPLDRI-NH2 (reading uncertain; also: printed as Occ-pro-Phe-Gly-Leu-Pro-Leu-Asp-Arg-Ile-NH2) [JAL-0836] and [Occ][Sni]FGLPLDRI-NH2 [JAL-0837] cannot be ordered by “EC50 group, cGMP in GTM-3 cells” value: ≤ 15 µM for the first, ≤ 15 µM for the second.

B14 and B15 cannot be ordered by “EC50 group, cGMP in GTM-3 cells” value: ≤ 5 µM for the first, ≤ 15 µM for the second.

For B16, the “EC50 group, cGMP in GTM-3 cells” value was ≤ 15 µM.

Molecular target: T1, natriuretic peptide receptor-B
Assay: cell-based or functional assay
Remark: another data set of the same source

First: GLSKGCFGLKLDRIGSMSGLGC (ligand, disulfide 6-22 (inferred)) [C-type natriuretic peptide]
Second: MCHFGGRMDRISCYR [mini-ANP]
The “EC50, cyclic GMP production in GTM-3 cells” value of the first is lower: 0.0388 µM for the first, > 45 µM for the second.

For SLRRSSCFGGRMDRIGAQSGLGCNSFRY (ligand, disulfide 7-23 (inferred)) [atrial natriuretic peptide], the “EC50, cyclic GMP production in GTM-3 cells” value was 1.63 µM.

In order of falling “Emax, cyclic GMP production in GTM-3 cells” value:
1. GLSKGCFGLKLDRIGSMSGLGC (ligand, disulfide 6-22 (inferred)) [C-type natriuretic peptide]  100%
2. SLRRSSCFGGRMDRIGAQSGLGCNSFRY (ligand, disulfide 7-23 (inferred)) [atrial natriuretic peptide]  15%
3. MCHFGGRMDRISCYR [mini-ANP]  0%

Molecular target: T2, natriuretic peptide receptor-A (Homo sapiens)
T2 chain: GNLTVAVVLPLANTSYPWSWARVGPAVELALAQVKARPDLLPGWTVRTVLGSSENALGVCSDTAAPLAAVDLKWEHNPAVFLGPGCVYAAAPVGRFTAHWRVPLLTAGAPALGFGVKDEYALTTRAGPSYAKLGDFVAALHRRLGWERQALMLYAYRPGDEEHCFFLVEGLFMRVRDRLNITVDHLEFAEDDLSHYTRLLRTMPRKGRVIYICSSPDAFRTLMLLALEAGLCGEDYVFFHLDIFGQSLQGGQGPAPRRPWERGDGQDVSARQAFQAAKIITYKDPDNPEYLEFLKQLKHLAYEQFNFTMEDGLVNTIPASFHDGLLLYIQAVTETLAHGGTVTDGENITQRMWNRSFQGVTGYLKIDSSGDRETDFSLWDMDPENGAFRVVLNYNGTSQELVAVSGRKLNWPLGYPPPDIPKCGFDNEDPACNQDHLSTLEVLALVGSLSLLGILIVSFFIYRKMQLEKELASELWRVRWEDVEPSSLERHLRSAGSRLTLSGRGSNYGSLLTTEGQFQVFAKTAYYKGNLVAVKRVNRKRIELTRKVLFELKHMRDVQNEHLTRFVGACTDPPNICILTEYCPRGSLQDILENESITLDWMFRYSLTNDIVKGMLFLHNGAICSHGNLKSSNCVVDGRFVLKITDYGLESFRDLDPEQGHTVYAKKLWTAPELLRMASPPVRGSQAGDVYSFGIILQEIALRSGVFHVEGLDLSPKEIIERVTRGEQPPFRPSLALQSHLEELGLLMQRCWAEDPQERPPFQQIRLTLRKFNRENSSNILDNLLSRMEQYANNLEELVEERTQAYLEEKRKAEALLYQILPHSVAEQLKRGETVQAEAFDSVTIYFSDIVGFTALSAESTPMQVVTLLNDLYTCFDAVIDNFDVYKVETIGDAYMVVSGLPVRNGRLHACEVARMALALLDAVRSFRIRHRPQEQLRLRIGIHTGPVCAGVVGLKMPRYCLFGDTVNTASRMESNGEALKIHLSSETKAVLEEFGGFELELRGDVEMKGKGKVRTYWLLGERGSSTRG
Assay: cell-based or functional assay

In order of falling “EC50, cyclic GMP production in NPR-A transfected 293-T cells” value:
1. GLSKGCFGLKLDRIGSMSGLGC (ligand, disulfide 6-22 (inferred)) [C-type natriuretic peptide]  1.6 µM
2. MCHFGGRMDRISCYR [mini-ANP]  1.54 µM

— patent US9187525B2, “Methods of treating ophthalmic diseases using NPR-B agonists” (Shire Orphan Therapies GmbH, dated 2015)
